Assay results from patent publication US20050287163A1, “Mycoplasma polypeptides” (priority 2002, published 2005).
Entries after “also recorded” stand apart in the source; their conditions may differ.

B1: proteinase K: proteolytic enzyme used to pretreat the membrane (protein, UniProt P06873 106-384, looked up)
Proteinase K: AAQTNAPWGLARISSTSPGTSTYYYDESAGQGSCVYVIDTGIEASHPEFEGRAQMVKTYYYSSRDGNGHGTHCAGTVGSRTYGVAKKTQLFGVKVLDDNGSGQYSTIIAGMDFVASDKNNRNCPKGVVASLSLGGGYSSSVNSAAARLQSSGVMVAVAAGNNNADARNYSPASEPSVCTVGASDRYDRRSSFSNYGSVLDIFGPGTSILSTWIGGSTRSISGTSMATPHVAGLAAYLMTLGKTTAASACRYIADTANKGDLSNIPFGTVNLLAYNNYQA
B2: soybean trypsin inhibitor: soybean trypsin inhibitor (protein, UniProt P01070 25-205, looked up)
Trypsin inhibitor A: DFVLDNEGNPLENGGTYYILSDITAFGGIRAAPTGNERCPLTVVQSRNELDKGIGTIISSPYRIRFIAEGHPLSLKFDSFAVIMLCVGIPTEWSVVEDLPEGPAVKIGENKDAMDGWFRLERVSDDEFNNYKLVFCPQQAEDDKCGDIGISIDHDDGTRRLVVSKNKPLVVQFQKLDKESL
B3: papain: proteolytic enzyme used to pretreat the membrane (protein, UniProt P00784 134-345, looked up)
Papain: IPEYVDWRQKGAVTPVKNQGSCGSCWAFSAVVTIEGIIKIRTGNLNEYSEQELLDCDRRSYGCNGGYPWSALQLVAQYGIHYRNTYPYEGVQRYCRSREKGPYAAKTDGVRQVQPYNEGALLYSIANQPVSVVLEAAGKDFQLYRGGIFVGPCGNKVDHAVAAVGYGPNYILIKNSWGTGWGENGYIRIKRGTGNSYGVCGLYTSSFYPVKN

Key:
[1] = test system: Mhyo membrane-induced [Ca2+]i increase in ciliated tracheal cells; assay: Protease pretreatment of Mhyo membrane, effect on membrane-induced [Ca2+]i increase; assay type: cell-based, porcine; details: pretreatment of the membrane for 8 hours, 37° C.
Protocol: FIG. 6 contains four graphs plotting [Ca^2+]i response in ciliated porcine tracheal cells inoculated with Mhyo membranes. Each trace indicates the [Ca^2+]i changes in each tracheal cell. The arrows indicate when administration occurred. (A) The membrane preparation (100 μg/mL) increased [Ca^2+]i. (B) Digestion with proteinase K blocked the membrane-induced increase in [Ca^2+]i. The membrane (100 μg/0.1 mL PBS) was incubated with proteinase K (2 μg) at 37° C. for 8 hours before it was applied to tracheal cells in 0.9 mL Krebs-Ringer bicarbonate (KRB) buffer. (C) Digestion with trypsin potentiated the membrane-induced increase in [Ca^2+]i. The membrane (100 μg/0.1 mL PBS) was incubated with trypsin (6 μg) at 37° C. for 30 minutes before it was applied to tracheal cells in 0.9 mL KRB. […] The soluble protein was prepared by subjecting the trypsinized membrane to ultracentrifigation (100,000× g, 60 minutes) to obtain the supernatant.
Mycoplasmas lack cell walls and have only one type of membrane, the plasma membrane (Razin S. (1993) Mycoplasma membranes as models in membrane research (Chapter 2), In: Subcellular Biochemistry. Vol 20: Mycoplasma Cell Membranes, edited by Rottem S, Kahane I. Plenum Press, New York. pp. 1-28). The Mhyo membrane was prepared by osmotic lysis of the organisms and tested to determine if it increased [Ca^2+]i in ciliated tracheal cells. […]

[2] = test system: trypsin-induced [Ca2+]i increase in swine ciliated epithelia; assay: Soybean trypsin inhibitor on trypsin-induced [Ca2+]i increase; assay type: cell-based; details: inhibitor 10 U/mL; trypsin 10 U/mL
Source text: (§1) According to a recent report, trypsin at 0.1 U/mL can increase [Ca^2+]i in guinea pig tracheal epithelia (Oshiro et al., Life Sci., 71:547-558 (2002)). Since the estimated trypsin concentration in the [Ca^2+]i experiments described herein is about 1 U/mL, we tested whether trypsin plays a role in the observed tryptic fragment-induced [Ca^2+]i increase.

[3] = test system: tryptic Mhyo polypeptide fragment-induced [Ca2+]i increase in ciliated tracheal epithelia; assay: Soybean trypsin inhibitor on tryptic Mhyo polypeptide fragment-induced [Ca2+]i increase; assay type: cell-based, swine; details: inhibitor 10 U/mL, incubated with preparation 37° C. 10 minutes
Protocol: FIG. 14 is a graph plotting [Ca^2+]i increase in porcine ciliated tracheal cells incubated with tryptic Mhyo membrane preparation pretreated with a soybean trypsin inhibitor (TI). […] TI was incubated with the tryptic membrane preparation at 37° C. for 10 minutes prior to administration. […] Each trace depicts [Ca^2+]i changes in one cell.
as §1

Molecule	effect of protease pretreatment on membrane-induced [Ca2+]i increase [1]	effect on trypsin-induced [Ca2+]i increase [2]	effect on tryptic Mhyo polypeptide fragment-induced [Ca2+]i increase [3]	effect on tryptic Mhyo polypeptide fragment-induced [Ca2+]i increase ([3]; listed as TI)
B1	blocked; also recorded: abolished			
B2		inhibited	failed to block	failed to inhibit
B3	abolished			
